Measured values from patent publication US20200164026A1, “Intranasal Delivery of Cell Permeant Therapeutics” (The Trustees of Columbia University in the City of New York, priority 2010, published 2020).

Columns and labels:
[1] = test system: Pen1-XBIR3 (Penetratin1 disulfide-linked to the BIR3 domain from XIAP)
[2] = biological target: T1, Pen1-C6DN (Penetratin1 disulfide-linked to caspase-6 catalytic dominant negative, C285A)
T1 chain 1: RQIKIWFQNRRMKWKK
T1 chain 2: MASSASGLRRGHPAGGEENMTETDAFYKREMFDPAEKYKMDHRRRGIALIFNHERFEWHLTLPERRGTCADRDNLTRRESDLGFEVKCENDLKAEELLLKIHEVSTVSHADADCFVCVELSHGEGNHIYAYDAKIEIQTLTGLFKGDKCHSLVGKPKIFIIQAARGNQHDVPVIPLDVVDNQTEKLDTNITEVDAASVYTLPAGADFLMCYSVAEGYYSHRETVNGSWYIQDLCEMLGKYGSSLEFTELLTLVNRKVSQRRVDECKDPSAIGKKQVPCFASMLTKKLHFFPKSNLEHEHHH

[3] = test system: caspase-cleaved tau (caspase-6 substrate); assay: Intranasal Pen1-C6DN prior to 1 hr tMCAo in mice; western blot for caspase-cleaved tau (anti-TauC3); assay type: in vivo, mouse; settings: intranasal 1 hr prior to 1 hr tMCAo, 24 hpr
Description: To determine if a direct blockade of caspase-6 would provide protection from ischemia, a Pen1-linked caspase-6 domininat negative (Pen1-C6DN) construct was utilized. Pen1-C6DN was delivered by intransasal bolus to mice 1 hr prior to tMCAo and mice were then subjected to 1 hrMCAo followed by reperfusion. Animals were sacrificed at 24 hpr and core and penumbra regions of brain prepared for Western blotting. As depicted in FIG. 7, protein lysate from the core and penumbra regions of the stroke infarct (24 hpr) was isolated. Ipsilateral (stroked) hemispheres contained abundant caspase-cleaved tau when only treated with vehicle.
Intranasal Pen1-C6DN Prevents Cleavage of Caspase-6 Substrates. Caspase-6 catalytic dominant negative (C6DN; C285A) was isolated and purified as described previously. Denault, J. B. and G. S. Salvesen, Expression, purification, and characterization of caspases. Curr Protoc Protein Sci, 2003. Chapter 21: p. Unit 21 13. Pen1 (Q-Biogene) was mixed at an equimolar ratio with purified C6DN and incubated overnight at 37° C. to generate disulfide-linked Pen1-C6DN. Linkage was assessed by 20% SDS-PAGE and Western blotting with anti-His and anti-Caspase-6 antibodies.
Male C57BL/6 mice (2-3 months old; ≥25 g) were anesthetized using isoflurane (2%) delivered via an anesthesia mask. […]

Sequence of Pen1-XBIR3 (Penetratin1 disulfide-linked to the BIR3 domain from XIAP) (chain, as listed by the source): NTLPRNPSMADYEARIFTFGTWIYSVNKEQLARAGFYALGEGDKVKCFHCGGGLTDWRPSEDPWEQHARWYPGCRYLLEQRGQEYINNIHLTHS

## caspase-9 (rat, endogenous in brain or hippocampal neurons)
[1]
  C1-C6 processes (count of cleaved caspase-6 positive processes), intranasal delivery, 12 hpr: Vehicle-12 hpr: 144.0±28.50, n=3 vs. Pen1-XBIR3-12 hpr: 102.7±23.15, n=3; p=0.3233
  C1-C6 processes (count of cleaved caspase-6 positive processes), intranasal delivery, 24 hpr: Vehicle-24 hpr: 109.7±12.73, n=3 vs. Pen1-XBIR3-24 hpr: 57.33±10.04, n=3; p=0.032
  immunostaining for caspase-9 and cleaved caspase-6 at 24 hpr after convection enhanced delivery to rat striatum: Pent-XBIR3 inhibited appearance of c1-C6 and caspase-9 in cell bodies and processes
  immunostaining for cleaved caspase-6 and caspase-9 at 24 hpr (FIG. 3D): The caspase-9 specific inhibitor, Pen1-XBIR3, blocks the increase in caspase-9 and the induction of c1-C6 observed at 24 hpr

B1: caspase-6 (mouse, endogenous in brain) (protein)
chain: MTETDGFYKSREVFDPAEQYKMDHKRRGVALIFNHERFFWHLTLPERRGTNADRDNLTRRFSDLGFEVKCFNDLRAEELLLKIHEVSTSSHIDADCFICVFLSHGEGNHVYAYDAKIEIQTLTGLFKGDKCQSLVGKPKIFIIQACRGSQHDVPVVPLDMVDHQTDKLDNVTQVDAASVYTLPAGADFLMCYSVAEGYYSHRETVNGSWYIQDLCEMLARYGSSLEFTELLTLVNRKVSQRRVDFCKDPDAIGKKQVPCFASMLTKKLHFCPKPSK
[2]
  caspase-cleaved tau in mouse brain lysate at 24 hpr (western blot, anti-TauC3): Pen1-C6DN reduced cleavage of caspase-cleaved tau

B2: Pen1-C6DN: Caspase-6 catalytic dominant negative (C6DN; C285A) disulfide-linked to Penetratin1 (SEQ ID NO: 11) (conjugate)
peptide: RQIKIWFQNRRMKWKK
chain: MASSASGLRRGHPAGGEENMTETDAFYKREMFDPAEKYKMDHRRRGIALIFNHERFEWHLTLPERRGTCADRDNLTRRESDLGFEVKCENDLKAEELLLKIHEVSTVSHADADCFVCVELSHGEGNHIYAYDAKIEIQTLTGLFKGDKCHSLVGKPKIFIIQAARGNQHDVPVIPLDVVDNQTEKLDTNITEVDAASVYTLPAGADFLMCYSVAEGYYSHRETVNGSWYIQDLCEMLGKYGSSLEFTELLTLVNRKVSQRRVDECKDPSAIGKKQVPCFASMLTKKLHFFPKSNLEHEHHH
[3]
  caspase-cleaved tau in core and penumbra lysate: reduced cleavage of caspase-cleaved tau
